The source of these data is PMC8407082, “An Integrative Approach to Determine 3D Protein Structures Using Sparse Paramagnetic NMR Data and Physical Modeling” (Frontiers in Molecular Biosciences, 2021).

The target in this assay is T1, calmodulin (UniProt P0DP23 1-149).
T1 construct: calmodulin, printed as 148 residues long; 13C/15N-labelled; The MELD model has 149 residues (with the extension C149); also called CaM; source: expressed in M9 minimal medium with 15NH4Cl and 13C6-glucose, purified as described previously (Liu and Vogel, 2012; Ishida et al., 2016)
In words: solution NMR (backbone chemical shifts, PRE, RDC) with MELD modelling of the complex's structure; 600 MHz; 1.2-fold excess of peptide mixed with CaM; RDCs in 2 mM bis-Tris pH 7.0, 300 mM KCl, 16 mg/ml Pf1 bacteriophage. To be noted: both partners purified.

B1: smooth muscle myosin light chain kinase peptide (peptide)
peptide: PARRKWQKTGHAVRAIGRLSS
notes: proline left from the Asp-Pro acid cleavage site of the linker GGGGSSDP; Made unlabelled (LB) or 13C/15N-labelled (M9); The N-terminal proline is not seen in the NMR experiments and was left out of the MELD model; also called smMLCK peptide; smMLCKp; not shown: 6xHis, N-terminal, cleaved; KSI (D38A), N-terminal, cleaved
For the molecule B1, the binding result is on record as “binds”.
